The source of these data is patent publication US20210403582A1 (JACOBIO PHARMACEUTICALS, published 2021).

One may read the EC50 (read off the curve) as the concentration at which the effect is half-maximal.

Test [1] addresses recombinant mouse LIF protein (mouse, UniProt P09056 24-203). Briefly: ELISA, mouse LIF coated at 1 µg/mL, A450. The procedure:
(§1) The recombinant mouse LIF protein (purchased from ACRO Biosystems) was diluted to 1 μg/mL, and was coated on the enzyme label plate, 100 μL of protein was added into every well, and incubated overnight in 4° C. The enzyme label plates were taken out next day, and the liquid was discarded, and were washed with PBST three times and blocked with 2% BSA in PBS for 1 h at room temperature, then washed with PBST three times, and added anti-human LIF antibodies 38E10E1C11, 5D8 and P36-033 at different concentrations and incubated for 1 h at room temperature. The liquid was discarded, and the plates were washed with PBST four times. The plates were added with HRP-labeled goat anti-mouse Fab antibody or goat anti-human FC antibody and incubated for 1 h at room temperature. Then the liquid was discarded, and the plates were washed four times with PBST and incubated with TMB colored solution in 10 minutes at room temperature. Stop color development by adding 2 mol/L H₂SO₄, and the absorption value at 450 nm is quantitated using an automated plate photometer, and the results were shown in FIG. 2.

The target in test [2] is T1, human LIF protein (human, UniProt P15018 23-202).
T1 construct: Bought recombinant protein (Sino Biological / Yiqiao Shenzhou 14890-HNAH) in most assays; also called recombinant human LIF protein; rhLIF
Briefly: competition ELISA: human LIF coated at 1 µg/mL, GP130-Fc 12 µg/mL added together with the antibody, HRP anti-human Fc, A450. (In general: ELISA stands for enzyme-linked immunosorbent assay.)

The target of test [3] is T1, human LIF protein. Briefly: competition ELISA: human LIF coated at 1 µg/mL, GP130-Fc 20 µg/mL added together with the antibody, A450. The method, then: The recombinant human LIF protein was coated on the enzyme label plates at a concentration of 1 μg/mL, GP130 protein (expressed fusedly with human FC) at a concentration of 20 μg/mL was added (50 μL/well), and the anti-human LIF antibodies P36-033 and 38E10E1C11 at different concentrations simultaneously were added separately (50 μL/well), and incubated for 2 h at room temperature. At the same time, the control wells added with antibodies and without GP130 protein were set. Incubated for 2 h at room temperature. After washed four times with PBST, incubated with HRP-labeled goat anti-mouse FC secondary antibody for 1 h at room temperature. Then the plates were washed four times with PBST and added with TMB coloured solution in for 10 minutes. The absorption value at 450 nm is quantitated using an enzyme-labelling measuring instrument, and the data was analyzed and plotted using Origin pro 9 software.

Test [4] deals with T2, human OSM (human, UniProt P13725 26-221, limits assumed).
T2 sequence (looked up): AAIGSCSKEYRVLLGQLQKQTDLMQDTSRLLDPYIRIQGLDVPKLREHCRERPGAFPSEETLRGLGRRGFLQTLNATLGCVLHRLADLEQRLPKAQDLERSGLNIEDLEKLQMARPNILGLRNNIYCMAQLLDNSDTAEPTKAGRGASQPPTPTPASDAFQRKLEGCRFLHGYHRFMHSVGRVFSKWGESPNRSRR
Briefly: ELISA, human OSM coated at 1 µg/mL, A450. The method, then:
(§2) The human LIF, human IL-6, human OSM, human CNTF (purchased from Sino biological) were coated on the enzyme label plate at a concentration of 1 μg/mL separately, and the anti-human LIF antibodies 38E10E1C11, P36-033 and 5D8 at different concentrations were added separately and incubated for 1 h at room temperature. Then the plates were washed four times with PBST and incubated with HRP-labeled goat anti-mouse FC secondary antibody for 1 h at room temperature. Then the plates were washed four times with PBST and added with TMB colored solution for color development at room temperature for 10 minutes. The absorption value at 450 nm is quantitated by the enzyme-labeling measuring instrument, and the data was analyzed and plotted using Origin pro 9 software.

The target of test [5] is T3, human CNTF (human, UniProt P26441 1-200, limits assumed).
T3 sequence (looked up): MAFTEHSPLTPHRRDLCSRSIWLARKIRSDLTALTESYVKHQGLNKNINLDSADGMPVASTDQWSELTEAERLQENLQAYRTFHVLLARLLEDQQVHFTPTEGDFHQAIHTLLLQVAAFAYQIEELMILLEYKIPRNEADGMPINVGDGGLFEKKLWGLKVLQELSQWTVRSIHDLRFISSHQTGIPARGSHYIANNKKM
Briefly: ELISA, human CNTF coated at 1 µg/mL, A450. The method, then:
as §2

Test [6] deals with human IL-6 (human, UniProt P05231 30-212, limits assumed). Briefly: ELISA, human IL-6 coated at 1 µg/mL, A450. The method, then:
as §2

For test [7], the target named is T1, human LIF protein. Briefly: ELISA, human LIF coated at 1 µg/mL, A450. The procedure:
as §1, with “recombinant human” for “recombinant mouse”, “protein” for “protein (purchased from ACRO Biosystems)”, “μg/mL,” for “μg/mL, and”, “of the” for “of”, “FIG. 1.” for “FIG. 2.”

T1 sequence (P15018 23-202 limits assumed): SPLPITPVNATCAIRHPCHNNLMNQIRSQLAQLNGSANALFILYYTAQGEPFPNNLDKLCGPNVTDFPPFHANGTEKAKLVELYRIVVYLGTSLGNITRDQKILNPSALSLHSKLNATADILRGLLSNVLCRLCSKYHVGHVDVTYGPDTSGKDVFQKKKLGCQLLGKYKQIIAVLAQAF
Chain of human IL-6 (P05231 30-212 limits assumed): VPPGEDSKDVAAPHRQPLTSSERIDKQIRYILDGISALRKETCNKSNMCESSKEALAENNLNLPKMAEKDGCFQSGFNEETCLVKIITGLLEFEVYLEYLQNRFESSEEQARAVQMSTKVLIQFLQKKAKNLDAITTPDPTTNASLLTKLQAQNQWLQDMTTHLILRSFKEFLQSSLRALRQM

B1: P36-033 antibody (antibody, mouse IgG1, kappa, V domains shown)
VH: EVMLVESGGGLVQPGGSRRLSCAASGFTFSSYPMFWVRQTPEKRMEWVAYISNGGDSTYYPDTVKGRFTVSRDNAKNTLYLQMSSLKSVDTAIYYCVRPSARYDEWFAYWGQGTLVTVSA
VL: DIVMTQSHKFMSTSVGDRVSITCKASQDVSNAVAWYQQKPGQSPRLLIYWASFRHTGVPDRFTGSGSGTEYTLTISRVQAEDLALYYCQQHYNTPYTFGGGTRLEIKR
notes: From a phage display library of immunised mice; full-length chains with mouse constant regions; also called P36-033 mAb
B1: the binding result in test [1] is “binds”; in test [4], “no binding (tested: 25 ug/ml)”; in test [5] it was “no binding (tested: 25 ug/ml)”; in test [6] it was “no binding (tested: 25 ug/ml)”. Also, the “IC50 (read off the curve)” value in test [2] and in test [3] was about 0.1 µg/mL each time. The concentration giving a half-maximal response (EC50 (read off the curve)) in test [7] is about 0.05 µg/mL.
